Test results: IntAct's records for PubMed 31515488

B1: Tuftelin-interacting protein 11 (Homo sapiens), Q9UBB9 (parent)
chain: MSLSHLYRDGEGRIDDDDDERENFEITDWDLQNEFNPNRQRHWQTKEEATYGVWAERDSDDERPSFGGKRARDYSAPVNFISAGLKKGAAEEAELEDSDDEEKPVKQDDFPKDFGPRKLKTGGNFKPSQKGFAGGTKSFMDFGSWERHTKGIGQKLLQKMGYVPGRGLGKNAQGIINPIEAKQRKGKGAVGAYGSERTTQSMQDFPVVDSEEEAEEEFQKELSQWRKDPSGSKKKPKYSYKTVEELKAKGRISKKLTAPQKELSQVKVIDMTGREQKVYYSYSQISHKHNVPDDGLPLQSQQLPQSGKEAKAPGFALPELEHNLQLLIDLTEQEIIQNDRQLQYERDMVVNLFHELEKMTEVLDHEERVISNLSKVLEMVEECERRMQPDCSNPLTLDECARIFETLQDKYYEEYRMSDRVDLAVAIVYPLMKEYFKEWDPLKDCTYGTEIISKWKSLLENDQLLSHGGQDLSADAFHRLIWEVWMPFVRNIVTQWQPRNCDPMVDFLDSWVHIIPVWILDNILDQLIFPKLQKEVENWNPLTDTVPIHSWIHPWLPLMQARLEPLYSPIRSKLSSALQKWHPSDSSAKLILQPWKDVFTPGSWEAFMVKNIVPKLGMCLGELVINPHQQHMDAFYWVIDWEGMISVSSLVGLLEKHFFPKWLQVLCSWLSNSPNYEEITKWYLGWKSMFSDQVLAHPSVKDKFNEALDIMNRAVSSNVGAYMQPGARENIAYLTHTERRKDFQYEAMQERREAENMAQRGIGVAASSVPMNFKDLIETKAEEHNIVFMPVIGKRHEGKQLYTFGRIVIYIDRGVVFVQGEKTWVPTSLQSLIDMAK
partner: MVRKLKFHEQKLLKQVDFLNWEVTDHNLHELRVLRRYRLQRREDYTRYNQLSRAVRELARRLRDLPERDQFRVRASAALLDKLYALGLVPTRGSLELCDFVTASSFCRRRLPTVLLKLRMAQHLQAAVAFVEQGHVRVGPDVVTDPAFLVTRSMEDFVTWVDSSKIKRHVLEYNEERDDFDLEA
B2: Probable thioesterase PNKD (Homo sapiens), Q8N490 (parent)
chain: MAAVVAATALKGRGARNARVLRGILAGATANKASHNRTRALQSHSSPEGKEEPEPLSPELEYIPRKRGKNPMKAVGLAWYSLYTRTWLGYLFYRQQLRRARNRYPKGHSKTQPRLFNGVKVLPIPVLSDNYSYLIIDTQAQLAVAVDPSDPRAVQASIEKEGVTLVAILCTHKHWDHSGGNRDLSRRHRDCRVYGSPQDGIPYLTHPLCHQDVVSVGRLQIRALATPGHTQGHLVYLLDGEPYKGPSCLFSGDLLFLSGCGRTFEGNAETMLSSLDTVLGLGDDTLLWPGHEYAEENLGFAGVVEPENLARERKMQWVQRQRLERKGTCPSTLGEERSYNPFLRTHCLALQEALGPGPGPTGDDDYSRAQLLEELRRLKDMHKSK
partner: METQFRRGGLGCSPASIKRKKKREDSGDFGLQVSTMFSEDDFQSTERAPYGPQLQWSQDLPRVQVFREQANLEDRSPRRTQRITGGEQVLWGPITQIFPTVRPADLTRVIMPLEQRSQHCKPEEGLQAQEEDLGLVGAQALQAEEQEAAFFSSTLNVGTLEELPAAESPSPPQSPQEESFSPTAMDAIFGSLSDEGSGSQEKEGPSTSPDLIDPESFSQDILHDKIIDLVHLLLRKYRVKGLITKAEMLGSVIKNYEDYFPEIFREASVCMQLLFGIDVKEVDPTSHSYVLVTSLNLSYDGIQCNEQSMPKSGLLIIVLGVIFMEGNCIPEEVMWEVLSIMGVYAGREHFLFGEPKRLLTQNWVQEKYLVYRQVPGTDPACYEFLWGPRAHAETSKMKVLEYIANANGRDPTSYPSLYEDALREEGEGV
B3: Syntenin-2 (Homo sapiens), Q9H190 (parent)
chain: MSSLYPSLEDLKVDQAIQAQVRASPKMPALPVQATAISPPPVLYPNLAELENYMGLSLSSQEVQESLLQIPEGDSTAVSGPGPGQMVAPVTGYSLGVRRAEIKPGVREIHLCKDERGKTGLRLRKVDQGLFVQLVQANTPASLVGLRFGDQLLQIDGRDCAGWSSHKAHQVVKKASGDKIVVVVRDRPFQRTVTMHKDSMGHVGFVIKKGKIVSLVKGSSAARNGLLTNHYVCEVDGQNVIGLKDKKIMEILATAGNVVTLTIIPSVIYEHMVKKLPPVLLHHTMDHSIPDA

Variants of: B1
Details: with imp3_human IMP3, Q9NV31

Variant	effect of a mutation on the interaction
S688L	with no effect

Variants of: B2
Details: with magab_human MAGEA11, P43364

Variant	effect of a mutation on the interaction
R377Q	with no effect

Variants of: B3
Details: with zch10_human ZCCHC10, Q8TBK6
Sequence of zch10_human ZCCHC10, Q8TBK6 (Q8TBK6 whole entry): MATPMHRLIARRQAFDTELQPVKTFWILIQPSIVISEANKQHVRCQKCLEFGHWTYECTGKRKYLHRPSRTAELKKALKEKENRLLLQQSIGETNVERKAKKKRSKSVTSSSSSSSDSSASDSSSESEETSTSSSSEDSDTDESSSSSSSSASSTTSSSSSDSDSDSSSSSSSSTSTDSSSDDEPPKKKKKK

Variant	effect of a mutation on the interaction
V182M	with no effect

Variants of: B3
Details: with t23o_human TDO2, P48775
Sequence of t23o_human TDO2, P48775 (P48775 whole entry, looked up): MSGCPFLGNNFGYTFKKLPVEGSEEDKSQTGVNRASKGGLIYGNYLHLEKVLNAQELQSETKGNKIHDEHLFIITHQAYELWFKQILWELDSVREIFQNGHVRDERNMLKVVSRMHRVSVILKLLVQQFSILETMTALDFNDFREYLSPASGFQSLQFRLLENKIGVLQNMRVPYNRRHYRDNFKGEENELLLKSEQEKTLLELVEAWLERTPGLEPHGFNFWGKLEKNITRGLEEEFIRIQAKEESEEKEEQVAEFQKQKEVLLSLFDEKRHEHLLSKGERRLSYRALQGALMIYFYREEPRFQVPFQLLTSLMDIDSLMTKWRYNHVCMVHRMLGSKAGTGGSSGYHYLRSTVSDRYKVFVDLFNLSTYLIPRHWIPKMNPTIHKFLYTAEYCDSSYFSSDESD

Variant	effect of a mutation on the interaction
V182M	with no effect

Variants of: B3
Details: with lyar_human LYAR

Variant	effect of a mutation on the interaction
V182M	with no effect

Variants of: B3
Details: with ytdc1_human YTHDC1, Q96MU7

Variant	effect of a mutation on the interaction
V182M	disrupting interaction strength

Variants of: B3
Details: with FAM133A

Variant	effect of a mutation on the interaction
V182M	with no effect
